Experimental data from patent US5597798A, “Taxol and epidermal growth factor used to enhance treatment of ovarian cancer” (The Regents of the University of California, priority 1994, dated 1997).

Legend:
2008 tumor xenografts = experiment: Effect of EGF on cisplatin toxicity against tumor xenografts in athymic mice; format: in vivo, athymic mice (nu/nu)
Experimental: For these studies, 3 to 4 week old female athymic mice (nu/nu) from BALB/c origin were used which were supplied by Harlan Sprague Dawley, Inc. (Indianapolis, Ind.). The mice were kept in a laminar flow hood at 28° C. and fed standard mouse diet and water ad libitum.
Tumor xenografts were established from 2008 cells by harvesting confluent cell cultures by trypsinization and resuspending the cells in RPMI 1640 medium at 2.5×10^7 cells per ml. From this suspension, 0.2 ml aliquots containing 5×10^6 cells were injected s.c. on each shoulder of the athymic mice. In each mouse, two tumors were followed and tumor volumes were determined using the formula (length×width^2)/2 (Giavazzi et al., Cancer Res. 46:1928 (1986) and Tomayko & Reynolds Cancer Chemother. Pharmacol. 24:148 (1989)).
In all groups, treatment was administered 24 hours after the inoculation with tumor cells.
Tumor growth of each tumor in each animal was expressed as plot of in(tumor volume) as a function of time. The regression line of the in(tumor volume) versus time plot was calculated by using the method of least squares. The intercept and slope were obtained and used to calculate the time each tumor required to reach an arbitrarily defined volume of 1 ml. This volume was chosen because most tumors in all treatment groups reached this endpoint. For comparisons between two groups the unpaired Student's T-test was used. […]

[1] = parameters: species or system mice; conditions: mouse, in vivo
Experimental: For nephrotoxicity studies, 72 h after treatment, mice were anesthetized and 1.5 ml of blood was sampled by cardiac puncture. Plasma creatinine and blood urea nitrogen (BUN) levels were used to measure toxicity and were determined by an enzymatic method previously described (Kulpman et al., J. Clin. Chem. Clin. Biochem. 28(11): 835 (1990)).

[2] = system: 2008 human ovarian carcinoma cells; experiment: Colony forming assay, effect of EGF on sensitivity to cytotoxic agents; format: cell-based; conditions: for survival, % of control cells treated with DDP alone: DDP and EGF together
2008 cells [3] = experiment: Growth rate under EGF exposure; format: cell-based, human; conditions: 2 h or continuous exposure to 10 nM EGF
Text: (§1) During the first 5 days after cell seeding, cell growth was exponential. The doubling times of the 2008, 2008/C13*, and COLO 316 cells were 27.9, 28.2, and 29.2 hs, respectively.

2008/C13* cells [4] = experiment: Growth rate under EGF exposure; format: cell-based, human; conditions: 2 h or continuous exposure to 10 nM EGF
Text: as §1

COLO 316 cells [5] = experiment: Growth rate under EGF exposure; format: cell-based, human; conditions: 2 h or continuous exposure to 10 nM EGF
Text: as §1

2008 cells [6] = experiment: Morphologic changes induced by EGF (light microscopy of colonies); format: cell-based, human; conditions: 10 nM EGF for 2 hs, inspected after 10 days
Text: (§2) The colonies formed by the COLO 316 cells appeared somewhat denser.

2008/C13* cells [7] = experiment: as above; format: cell-based, human; conditions: 2 h EGF exposure
Text: as §2

COLO 316 cells [8] = experiment: as above; format: cell-based, human; conditions: 10 nM EGF for 2 hs, inspected after 10 days
Text: as §2

[9] = 2 h exposure to EGF (1 h before and 1 h concurrent with DDP)
[10] = delay between 1 h EGF pre-treatment and 1 h DDP exposure

B1: EGF: Epidermal Growth Factor; murine EGF (Sigma) in clonogenic assays, 125I-labelled human recombinant EGF in binding assays (protein, UniProt P01133 23-1207, looked up)
Pro-epidermal growth factor: PQHWSCPEGTLAGNGNSTCVGPAPFLIFSHGNSIFRIDTEGTNYEQLVVDAGVSVIMDFHYNEKRIYWVDLERQLLQRVFLNGSRQERVCNIEKNVSGMAINWINEEVIWSNQQEGIITVTDMKGNNSHILLSALKYPANVAVDPVERFIFWSSEVAGSLYRADLDGVGVKALLETSEKITAVSLDVLDKRLFWIQYNREGSNSLICSCDYDGGSVHISKHPTQHNLFAMSLFGDRIFYSTWKMKTIWIANKHTGKDMVRINLHSSFVPLGELKVVHPLAQPKAEDDTWEPEQKLCKLRKGNCSSTVCGQDLQSHLCMCAEGYALSRDRKYCEDVNECAFWNHGCTLGCKNTPGSYYCTCPVGFVLLPDGKRCHQLVSCPRNVSECSHDCVLTSEGPLCFCPEGSVLERDGKTCSGCSSPDNGGCSQLCVPLSPVSWECDCFPGYDLQLDEKSCAASGPQPFLLFANSQDIRHMHFDGTDYGTLLSQQMGMVYALDHDPVENKIYFAHTALKWIERANMDGSQRERLIEEGVDVPEGLAVDWIGRRFYWTDRGKSLIGRSDLNGKRSKIITKENISQPRGIAVHPMAKRLFWTDTGINPRIESSSLQGLGRLVIASSDLIWPSGITIDFLTDKLYWCDAKQSVIEMANLDGSKRRRLTQNDVGHPFAVAVFEDYVWFSDWAMPSVMRVNKRTGKDRVRLQGSMLKPSSLVVVHPLAKPGADPCLYQNGGCEHICKKRLGTAWCSCREGFMKASDGKTCLALDGHQLLAGGEVDLKNQVTPLDILSKTRVSEDNITESQHMLVAEIMVSDQDDCAPVGCSMYARCISEGEDATCQCLKGFAGDGKLCSDIDECEMGVPVCPPASSKCINTEGGYVCRCSEGYQGDGIHCLDIDECQLGEHSCGENASCTNTEGGYTCMCAGRLSEPGLICPDSTPPPHLREDDHHYSVRNSDSECPLSHDGYCLHDGVCMYIEALDKYACNCVVGYIGERCQYRDLKWWELRHAGHGQQQKVIVVAVCVVVLVMLLLLSLWGAHYYRTQKLLSKNPKNPYEESSRDVRSRRPADTEDGMSSCPQPWFVVIKEHQDLKNGGQPVAGEDGQAADGSMQPTSWRQEPQLCGMGTEQGCWIPVSSDKGSCPQVMERSFHMPSYGTQTLEGGVEKPHSLLSANPLWQQRALDPPHQMELTQ
modifications: Pro-epidermal growth factor 125I-labelled; murine EGF also used
time required for tumors to reach a volume of 1 ml (in words) (2008 tumor xenografts; 1 mg/kg EGF s.c. alone or with 15 mg/kg cisplatin i.p.): no effect on the time required for tumors to reach a volume of 1 ml | final tumor volume (2008 tumor xenografts; 1 mg/kg EGF s.c. and/or 15 mg/kg cisplatin i.p., 24 hours after inoculation): no effect on the final tumor volume | serum creatinine or BUN [1]: Neither treatment with EGF alone, cisplatin alone, or EGF plus cisplatin resulted in statistically significant increases in serum creatinine or BUN | EGF concentration of maximal enhancement of DDP sensitivity [2, 9]: about 10 nM | lowest EGF concentration that enhanced sensitivity to DDP [2, 9]: 0.4 nM | survival, % of control cells treated with DDP alone ([2]; no cyclohexamide): 31±10% | survival, % of control cells treated with DDP alone ([2]; pretreatment with cyclohexamide inhibiting protein synthesis by 90%): 47±8% | effect of further increase in EGF concentration ([2]; EGF up to 100 nM): no additional change in sensitivity to DDP | loss of EGF mediated increase in sensitivity to DDP [2, 10]: largely disappeared by 24 hs | persistence of EGF mediated increase in sensitivity to DDP [2, 10]: at least 6 hs | effect on growth rate (2008 cells [3]): Neither a 2 h nor a continuous exposure to 10 nM EGF had any demonstrable impact on the growth rate | effect on growth rate (2008/C13* cells [4]): Neither a 2 h nor a continuous exposure to 10 nM EGF had any demonstrable impact on the growth rate | effect on growth rate (COLO 316 cells [5]): Neither a 2 h nor a continuous exposure to 10 nM EGF had any demonstrable impact on the growth rate | morphologic change of colonies (2008 cells [6]): marked scattering of the colonies and the formation of prominent dendritic processes | morphologic response (2008/C13* cells [7]): showed no morphologic response | morphologic change of colonies (COLO 316 cells [8]): marked scattering of the colonies and the formation of prominent dendritic processes
